Measurements: the supplement of paper PMC6757056
± gives the standard deviation of the averaged measurements.

B1: library; a variant is named by its letters at N, in order (parent)
chain: GCUGUCACCGAGAAACUGUGAAGUAUAUCUUAAACCUGGGCACUUAAAAGAUAUAUGGAGUUAGUAGUGCAACCUGCUCGGUCUGAUGAGUCCNNNNNNGGACGAAACAGC

Assays:
[1] = variants of: B1; assay: FACS-Seq fitted mean relative fluorescence mCherry/BFP without ligand (log10 relative fluorescence); HEK293T; ligand: cyclic di-GMP (c-di-GMP-II aptamer); higher = higher reporter protein expression; conditions: ligand present: no
In short: (§1)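 Fluorescence values are fitted normal means of bin counts along the mCherry/BFP axis. HEK293T libraries lentivirally carrying the ribozyme switch in an mCherry reporter, with an EF1α-BFP marker, were enriched, exposed to ligand or not for 48 h, and sorted into 6 bins. Genomic DNA per bin was PCR-amplified, barcoded and run on MiSeq. Means of log10(mCherry/BFP) were scaled to five spiked-in control ribozymes.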

[2] = variants of: B1; assay: normalized RNA/DNA level without ligand (relative to sTRSVctl = 100) (log10 (% of sTRSVctl)); HEK293T; ligand: cyclic di-GMP (c-di-GMP-II aptamer); higher = less ribozyme self-cleavage, higher mRNA level; conditions: reporter: mCherry (pCS4076), ligand present: no
Experimental: (§2)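 Hammerhead (sTRSV) ribozyme switch libraries with a ligand aptamer grafted on stem I and a randomized N4-6 loop II, cloned into the 3' UTR of mCherry and transiently transfected into HEK293T cells; RNA-Seq 72 h post transfection with ligand added 1 h before transfection; RNA read count / plasmid DNA read count normalized to the non-cleaving sTRSVctl (x100), log10; sequences with >100 DNA reads. FACS-Seq: lentiviral library sorted into 6 bins after 48 h ligand, log-normal fit mean of mCherry/BFP scaled to controls. Printed sequences are partial switch sequences.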

[3] = variants of: B1; assay: FACS-Seq fitted mean relative fluorescence mCherry/BFP with ligand (log10 relative fluorescence); HEK293T; ligand: cyclic di-GMP (c-di-GMP-II aptamer); ligand concentration (+) FACS-Seq: 1 mM; higher = higher reporter protein expression; conditions: ligand present: yes
In short: as §1

[4] = variants of: B1; assay: normalized RNA/DNA level with ligand (relative to sTRSVctl = 100) (log10 (% of sTRSVctl)); HEK293T; ligand: cyclic di-GMP (c-di-GMP-II aptamer); ligand concentration (+) RNA-Seq: 1 mM; higher = less ribozyme self-cleavage, higher mRNA level; conditions: reporter: mCherry (pCS4076), ligand present: yes
Experimental: as §2

| Variant | FACS-Seq fitted mean (log10) [1] | normalized RNA/DNA level without ligand (log10) [2] | FACS-Seq fitted mean (log10) [3] | normalized RNA/DNA level with ligand (log10) [4] |
| --- | --- | --- | --- | --- |
| UCCCUG | 0.234 ± 0.092 | 1.776 ± 0.0073 | 0.44 ± 0.0075 | 1.89 ± 0.13 |
| CCAAGU | -0.377 ± 0.06 | 1.663 ± 0.013 | 0.0295 ± 0.007 | 1.82 ± 0.099 |
| CCAAGA | -0.572 ± 0.0069 | 1.47 ± 0.074 | -0.208 ± 0.06 | 1.69 ± 0.13 |
| ACAUUA | -0.21 ± 0.0052 | 1.41 ± 0.087 | 0.0676 ± 0.069 | 1.62 ± 0.078 |
| ACAUUG | -0.689 ± 0.036 | 1.53 ± 0.024 | -0.401 ± 0.11 | 1.69 ± 0.13 |
| UCCAAA | -0.284 ± 0.0034 | 1.57 ± 0.076 | 0.111 ± 0.079 | 1.75 ± 0.12 |
| GCACUA | -0.172 ± 0.017 | 1.48 ± 0.023 | 0.225 ± 0.12 | 1.75 ± 0.062 |
| GCACUU | -0.492 ± 0.071 | 1.588 ± 0.015 | -0.235 ± 0.081 | 1.8 ± 0.063 |
| GCACUC | -0.286 ± 0.015 | 1.5 ± 0.056 | 0.125 ± 0.0091 | 1.69 ± 0.17 |
| UAUGGU | -0.169 ± 0.095 | 1.569 ± 0.014 | 0.0872 ± 0.053 | 1.76 ± 0.11 |
| CAUUAA | -0.604 ± 0.025 | 1.26 ± 0.11 | -0.31552 ± 2.8e-05 | 1.46 ± 0.12 |
| CAUUAU | -0.4943 ± 0.0018 | 1.54 ± 0.098 | -0.353 ± 0.08 | 1.71 ± 0.1 |
| GCAGAG | -0.424 ± 0.029 | 1.4 ± 0.08 | -0.199 ± 0.03 | 1.58 ± 0.043 |
| GCAGAA | -0.671 ± 0.025 | 1.27 ± 0.082 | -0.367 ± 0.017 | 1.5 ± 0.13 |
| CCAUUG | -0.474 ± 0.062 | 1.28 ± 0.11 | -0.134 ± 0.034 | 1.55 ± 0.093 |
| GCCAGG | -0.568 ± 0.068 | 1.75 ± 0.071 | -0.429 ± 0.034 | 1.84 ± 0.087 |
| CCCCCA | -0.0821 ± 0.078 | 1.71 ± 0.046 | 0.187 ± 0.091 | 1.83 ± 0.14 |
| ACCAAC | -0.0269 ± 0.12 | 1.6 ± 0.048 | 0.111 ± 0.07 | 1.76 ± 0.085 |
| ACCAAG | -0.4336 ± 0.0033 | 1.54 ± 0.1 | -0.172 ± 0.048 | 1.71 ± 0.09 |
| ACCAAA | -0.438 ± 0.056 | 1.49 ± 0.12 | -0.0508 ± 0.12 | 1.71 ± 0.1 |
| UCAAUU | -0.69 ± 0.034 | 1.585 ± 0.0066 | -0.175 ± 0.22 | 1.77 ± 0.13 |
| UCAAUA | -0.525 ± 0.048 | 1.4 ± 0.085 | -0.157 ± 0.078 | 1.63 ± 0.089 |
| UCAAUG | -0.476 ± 0.064 | 1.51 ± 0.12 | -0.188 ± 0.01 | 1.78 ± 0.027 |
| GCAGGU | -0.184 ± 0.0055 | 1.66 ± 0.054 | 0.0315 ± 0.013 | 1.79 ± 0.15 |

| Variant | FACS-Seq fitted mean (log10) [1] | normalized RNA/DNA level without ligand (log10) [2] | FACS-Seq fitted mean (log10) [3] | normalized RNA/DNA level with ligand (log10) [4] |
| --- | --- | --- | --- | --- |
| ACAGCG | -0.358 ± 0.013 | 1.75 ± 0.0045 | -0.079 ± 0.031 | 1.86 ± 0.1 |
| AAUGGC | -0.236 ± 0.066 | 1.65 ± 0.033 | 0.153 ± 0.011 | 1.81 ± 0.061 |
| AAUGGG | -0.71 ± 0.015 | 1.4 ± 0.11 | -0.453 ± 0.035 | 1.57 ± 0.076 |
| AAUGGA | -0.46 ± 0.012 | 1.36 ± 0.11 | -0.114 ± 0.0052 | 1.55 ± 0.066 |
| ACACGA | -0.4507 ± 0.0033 | 1.37 ± 0.16 | -0.174 ± 0.061 | 1.55 ± 0.11 |
| ACACGG | -0.501 ± 0.0065 | 1.53 ± 0.084 | -0.192 ± 0.029 | 1.69 ± 0.1 |
| ACAUAG | -0.486 ± 0.035 | 1.41 ± 0.11 | -0.109 ± 0.082 | 1.66 ± 0.05 |
| ACAUAC | -0.256 ± 0.19 | 1.57 ± 0.056 | -0.161 ± 0.28 | 1.76 ± 0.097 |
| ACAUAA | -0.3987 ± 0.0024 | 1.39 ± 0.12 | -0.112 ± 0.0021 | 1.63 ± 0.063 |
| CCAGUC | -0.422 ± 0.072 | 1.68 ± 0.023 | -0.0312 ± 0.045 | 1.83 ± 0.077 |
| CCAGUU | 0.0604 ± 0.26 | 1.69 ± 0.04 | 0.36 ± 0.0063 | 1.87 ± 0.077 |
| CCAGUA | -0.229 ± 0.044 | 1.5 ± 0.092 | 0.134 ± 0.047 | 1.73 ± 0.12 |
| UCCAGA | -0.246 ± 0.071 | 1.631 ± 0.014 | 0.0947 ± 0.062 | 1.82 ± 0.081 |
| UCCAGC | -0.739 ± 0.051 | 1.66 ± 0.059 | -0.609 ± 0.015 | 1.84 ± 0.15 |
| CCCAAA | -0.275 ± 0.06 | 1.48 ± 0.062 | 0.0473 ± 0.081 | 1.69 ± 0.1 |
| UCACCA | 0.0707 ± 0.26 | 1.694 ± 0.0047 | 0.366 ± 0.022 | 1.84 ± 0.14 |
| GCCCUA | -0.142 ± 0.071 | 1.688 ± 0.013 | 0.0262 ± 0.042 | 1.85 ± 0.1 |
| ACAGAG | -0.3716 ± 0.0034 | 1.44 ± 0.14 | -0.0973 ± 0.031 | 1.59 ± 0.052 |
| ACAGAU | -0.584 ± 0.025 | 1.39 ± 0.072 | -0.289 ± 0.018 | 1.54 ± 0.096 |
| ACAGAA | -0.5622 ± 0.0028 | 1.29 ± 0.15 | -0.287 ± 0.057 | 1.47 ± 0.071 |
| ACAAUA | -0.5113 ± 0.0047 | 1.33 ± 0.094 | -0.23 ± 0.047 | 1.55 ± 0.14 |
| ACAAUG | -0.431 ± 0.026 | 1.39 ± 0.15 | -0.0705 ± 0.082 | 1.66 ± 0.098 |
| ACAAUU | -0.5008 ± 0.0033 | 1.32 ± 0.093 | -0.2 ± 0.0047 | 1.52 ± 0.089 |
| ACAAUC | -0.873 ± 0.017 | 1.49 ± 0.043 | -0.61 ± 0.16 | 1.7 ± 0.15 |

| Variant | FACS-Seq fitted mean (log10) [1] | normalized RNA/DNA level without ligand (log10) [2] | FACS-Seq fitted mean (log10) [3] | normalized RNA/DNA level with ligand (log10) [4] |
| --- | --- | --- | --- | --- |
| CCAUGC | 0.318 ± 0.13 | 1.673 ± 0.0061 | 0.419 ± 0.012 | 1.82 ± 0.11 |
| ACAAAU | -0.483 ± 0.17 | 1.37 ± 0.13 | -0.291 ± 0.042 | 1.57 ± 0.08 |
| ACAAAA | -0.498 ± 0.059 | 1.31 ± 0.11 | -0.271 ± 0.018 | 1.52 ± 0.069 |
| CCAAUG | -0.6462 ± 0.0011 | 1.23 ± 0.16 | -0.334 ± 0.017 | 1.49 ± 0.018 |
| CCAAUA | -0.5437 ± 0.0029 | 1.36 ± 0.12 | -0.271 ± 0.066 | 1.59 ± 0.11 |
| ACCCGC | -0.436 ± 0.15 | 1.75 ± 0.018 | -0.0881 ± 0.013 | 1.85 ± 0.099 |
| UCACGA | -0.203 ± 0.066 | 1.632 ± 0.0055 | 0.146 ± 0.017 | 1.81 ± 0.091 |
| UCACGU | -0.191 ± 0.32 | 1.6 ± 0.044 | 0.0669 ± 0.07 | 1.79 ± 0.074 |
| GCACGA | -0.471 ± 0.043 | 1.43 ± 0.093 | -0.123 ± 0.049 | 1.65 ± 0.11 |
| ACAAGC | -0.263 ± 0.13 | 1.44 ± 0.045 | -0.052 ± 0.14 | 1.7 ± 0.12 |
| ACAAGU | -0.519 ± 0.012 | 1.42 ± 0.039 | -0.19187 ± 0.00017 | 1.63 ± 0.13 |
| ACAAGA | -0.604 ± 0.026 | 1.26 ± 0.14 | -0.428 ± 0.022 | 1.46 ± 0.023 |
| CCCCUA | -0.244 ± 0.03 | 1.56 ± 0.054 | 0.111 ± 0.091 | 1.74 ± 0.093 |
| CCCCUG | -0.147 ± 0.12 | 1.69 ± 0.045 | 0.154 ± 0.1 | 1.84 ± 0.097 |
| CCCCUU | -0.25 ± 0.04 | 1.65 ± 0.019 | 0.125 ± 0.14 | 1.84 ± 0.12 |
| CCACAU | 0.0115 ± 0.077 | 1.54 ± 0.052 | 0.346 ± 0.031 | 1.76 ± 0.11 |
| GAUUUA | -0.361 ± 0.0081 | 1.65 ± 0.018 | -0.0961 ± 0.03 | 1.81 ± 0.11 |
| GCCAAU | -0.423 ± 0.1 | 1.57 ± 0.021 | -0.105 ± 0.08 | 1.75 ± 0.11 |
| GCCAAG | -0.6955 ± 0.0047 | 1.542 ± 0.0066 | -0.362 ± 0.081 | 1.67 ± 0.19 |
| AAUUGG | 0.0192 ± 0.091 | 1.59 ± 0.068 | 0.141 ± 0.0084 | 1.74 ± 0.13 |
| CCAGAC | -0.24 ± 0.11 | 1.631 ± 0.0075 | 0.128 ± 0.0098 | 1.83 ± 0.16 |
| CCAGAA | -0.598 ± 0.013 | 1.34 ± 0.14 | -0.277 ± 0.015 | 1.58 ± 0.1 |
| GCAUCU | -1.08 ± 0.08 | 1.614 ± 0.0091 | -0.903 ± 0.025 | 1.79 ± 0.094 |
